Tests used:
Assay in all cases: ELISA
[1] = biological target: UbV.ANKRD13D.4 S65A (UniProt P0CG47)
[2] = biological target: UbV.ANKRD13D.4 W72A (UniProt P0CG47)
[3] = biological target: UbV.ANKRD13D.4 T12A (UniProt P0CG47)
[4] = biological target: UbV.ANKRD13D.4 L70A (UniProt P0CG47)
[5] = biological target: UbV.ANKRD13D.4 Q49A (UniProt P0CG47)

Measured: fold effect on affinity against UbV.ANKRD13D.4

RGQQEEEDLQRILQLSLTEH [UIM.ANKRD13D.4 peptide]
< 3 fold: all assays above

Reference: publication PMC9305627
